Experimental data reported in patent US20140287471A1, “VARIANT CBH I POLYPEPTIDES WITH REDUCED PRODUCT INHIBITION” (BP CORPORATION NORTN AMERICA INC., priority 2011, published 2014).

Assays:
[1] = 4-MUL cellobiose tolerance/inhibition assay, dose-response IC50 (Example 2); type: biochemical; conditions: primary screening, n=1; for Tolerance at 1 mM CB (MUL Data): 1 mM cellobiose; for IC50: 10 μL enzyme, cellobiose range 0.0001-100 mM, read-out: IC50 (MUL Data)
Summary of the method: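 IC50 reflects cellobiose concentration halving activity, fitted by four-parameter dose-response with zero activity fixed at knockout-strain background. Assays used 4-MUL (0.5 mM) with enzyme at 5 μg/mL or less, pH 6 MES, 25 mM gluconolactone blocking BG, cellobiose up to 100 mM; 4-MU fluorescence read.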

[2] = 4-MUL assay, specific activity (Example 2); type: biochemical; conditions: primary screening; 10 μL enzyme; n=1
Summary of the method: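 Specific activity derived from 4-MU standard curves and HPLC-quantified enzyme. Initial rates were taken over the first 15 min, with an endpoint read at 1 h (pH 10 carbonate quench), all at ex 365/em 450 nm. Conditions: 0.5 mM 4-MUL, 5 μg/mL enzyme, MES pH 6, 25 mM gluconolactone, cellobiose optional.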

Molecule | Tolerance at 1 mM CB (MUL Data) [1] [%] | IC50 [1] [mM] | SA (μmol 4 MU/min/mg) (MUL Data) [2]
268A+411— Trp (protein, UniProt P62694 18-513, looked up, variant R268A R411W) Exoglucanase 1: QSACTLQSETHPPLTWQKCSSGGTCTQQTGSVVIDANWRWTHATNSSTNCYDGNTWSSTLCPDNETCAKNCCLDGAAYASTYGVTTSGNSLSIGFVTQSAQKNVGARLYLMASDTTYQEFTLLGNEFSFDVDVSQLPCGLNGALYFVSMDADGGVSKYPTNTAGAKYGTGYCDSQCPRDLKFINGQANVEGWEPSSNNANTGIGGHGSCCSEMDIWEANSISEALTPHPCTTVGQEICEGDGCGGTYSDNAYGGTCDPDGCDWNPYRLGNTSFYGPGSSFTLDTTKKLTVVTQFETSGAINRYYVQNGVTFQQPNAELGSYSGNELNDDYCTAEEAEFGGSSFSDKGGLTQFKKATSGGMVLVMSLWDDYYANMLWLDSTYPTNETSSTPGAVWGSCSTSSGVPAQVESQSPNAKVTFSNIKFGPIGSTGNPSGGNPPGGNRGTTTTRRPATTTGSSPGPTQSHYGQCGGIGYSGPTVCASGTTCQVLNPYYSQCL | 97 | 28.4 | 3.07
411— Tyr (protein, UniProt P62694 18-513, looked up, variant R411Y) Exoglucanase 1: QSACTLQSETHPPLTWQKCSSGGTCTQQTGSVVIDANWRWTHATNSSTNCYDGNTWSSTLCPDNETCAKNCCLDGAAYASTYGVTTSGNSLSIGFVTQSAQKNVGARLYLMASDTTYQEFTLLGNEFSFDVDVSQLPCGLNGALYFVSMDADGGVSKYPTNTAGAKYGTGYCDSQCPRDLKFINGQANVEGWEPSSNNANTGIGGHGSCCSEMDIWEANSISEALTPHPCTTVGQEICEGDGCGGTYSDNRYGGTCDPDGCDWNPYRLGNTSFYGPGSSFTLDTTKKLTVVTQFETSGAINRYYVQNGVTFQQPNAELGSYSGNELNDDYCTAEEAEFGGSSFSDKGGLTQFKKATSGGMVLVMSLWDDYYANMLWLDSTYPTNETSSTPGAVYGSCSTSSGVPAQVESQSPNAKVTFSNIKFGPIGSTGNPSGGNPPGGNRGTTTTRRPATTTGSSPGPTQSHYGQCGGIGYSGPTVCASGTTCQVLNPYYSQCL | 85 | 5.4 | 0.67
411— Glu (protein, UniProt P62694 18-513, looked up, variant R411E) Exoglucanase 1: QSACTLQSETHPPLTWQKCSSGGTCTQQTGSVVIDANWRWTHATNSSTNCYDGNTWSSTLCPDNETCAKNCCLDGAAYASTYGVTTSGNSLSIGFVTQSAQKNVGARLYLMASDTTYQEFTLLGNEFSFDVDVSQLPCGLNGALYFVSMDADGGVSKYPTNTAGAKYGTGYCDSQCPRDLKFINGQANVEGWEPSSNNANTGIGGHGSCCSEMDIWEANSISEALTPHPCTTVGQEICEGDGCGGTYSDNRYGGTCDPDGCDWNPYRLGNTSFYGPGSSFTLDTTKKLTVVTQFETSGAINRYYVQNGVTFQQPNAELGSYSGNELNDDYCTAEEAEFGGSSFSDKGGLTQFKKATSGGMVLVMSLWDDYYANMLWLDSTYPTNETSSTPGAVEGSCSTSSGVPAQVESQSPNAKVTFSNIKFGPIGSTGNPSGGNPPGGNRGTTTTRRPATTTGSSPGPTQSHYGQCGGIGYSGPTVCASGTTCQVLNPYYSQCL | 76 | 2.95 | 0.38
411— Asp (protein, UniProt P62694 18-513, looked up, variant R411D) Exoglucanase 1: QSACTLQSETHPPLTWQKCSSGGTCTQQTGSVVIDANWRWTHATNSSTNCYDGNTWSSTLCPDNETCAKNCCLDGAAYASTYGVTTSGNSLSIGFVTQSAQKNVGARLYLMASDTTYQEFTLLGNEFSFDVDVSQLPCGLNGALYFVSMDADGGVSKYPTNTAGAKYGTGYCDSQCPRDLKFINGQANVEGWEPSSNNANTGIGGHGSCCSEMDIWEANSISEALTPHPCTTVGQEICEGDGCGGTYSDNRYGGTCDPDGCDWNPYRLGNTSFYGPGSSFTLDTTKKLTVVTQFETSGAINRYYVQNGVTFQQPNAELGSYSGNELNDDYCTAEEAEFGGSSFSDKGGLTQFKKATSGGMVLVMSLWDDYYANMLWLDSTYPTNETSSTPGAVDGSCSTSSGVPAQVESQSPNAKVTFSNIKFGPIGSTGNPSGGNPPGGNRGTTTTRRPATTTGSSPGPTQSHYGQCGGIGYSGPTVCASGTTCQVLNPYYSQCL | 106 | 2.08 | 0.23
268A+411— Glu (protein, UniProt P62694 18-513, looked up, variant R268A R411E) Exoglucanase 1: QSACTLQSETHPPLTWQKCSSGGTCTQQTGSVVIDANWRWTHATNSSTNCYDGNTWSSTLCPDNETCAKNCCLDGAAYASTYGVTTSGNSLSIGFVTQSAQKNVGARLYLMASDTTYQEFTLLGNEFSFDVDVSQLPCGLNGALYFVSMDADGGVSKYPTNTAGAKYGTGYCDSQCPRDLKFINGQANVEGWEPSSNNANTGIGGHGSCCSEMDIWEANSISEALTPHPCTTVGQEICEGDGCGGTYSDNAYGGTCDPDGCDWNPYRLGNTSFYGPGSSFTLDTTKKLTVVTQFETSGAINRYYVQNGVTFQQPNAELGSYSGNELNDDYCTAEEAEFGGSSFSDKGGLTQFKKATSGGMVLVMSLWDDYYANMLWLDSTYPTNETSSTPGAVEGSCSTSSGVPAQVESQSPNAKVTFSNIKFGPIGSTGNPSGGNPPGGNRGTTTTRRPATTTGSSPGPTQSHYGQCGGIGYSGPTVCASGTTCQVLNPYYSQCL | 95 | 16.9 | 0.74
268A+411— Cys (protein, UniProt P62694 18-513, looked up, variant R268A R411C) Exoglucanase 1: QSACTLQSETHPPLTWQKCSSGGTCTQQTGSVVIDANWRWTHATNSSTNCYDGNTWSSTLCPDNETCAKNCCLDGAAYASTYGVTTSGNSLSIGFVTQSAQKNVGARLYLMASDTTYQEFTLLGNEFSFDVDVSQLPCGLNGALYFVSMDADGGVSKYPTNTAGAKYGTGYCDSQCPRDLKFINGQANVEGWEPSSNNANTGIGGHGSCCSEMDIWEANSISEALTPHPCTTVGQEICEGDGCGGTYSDNAYGGTCDPDGCDWNPYRLGNTSFYGPGSSFTLDTTKKLTVVTQFETSGAINRYYVQNGVTFQQPNAELGSYSGNELNDDYCTAEEAEFGGSSFSDKGGLTQFKKATSGGMVLVMSLWDDYYANMLWLDSTYPTNETSSTPGAVCGSCSTSSGVPAQVESQSPNAKVTFSNIKFGPIGSTGNPSGGNPPGGNRGTTTTRRPATTTGSSPGPTQSHYGQCGGIGYSGPTVCASGTTCQVLNPYYSQCL | 85 | 7.66 | 1.58
268A+411— Gly (protein, UniProt P62694 18-513, looked up, variant R268A R411G) Exoglucanase 1: QSACTLQSETHPPLTWQKCSSGGTCTQQTGSVVIDANWRWTHATNSSTNCYDGNTWSSTLCPDNETCAKNCCLDGAAYASTYGVTTSGNSLSIGFVTQSAQKNVGARLYLMASDTTYQEFTLLGNEFSFDVDVSQLPCGLNGALYFVSMDADGGVSKYPTNTAGAKYGTGYCDSQCPRDLKFINGQANVEGWEPSSNNANTGIGGHGSCCSEMDIWEANSISEALTPHPCTTVGQEICEGDGCGGTYSDNAYGGTCDPDGCDWNPYRLGNTSFYGPGSSFTLDTTKKLTVVTQFETSGAINRYYVQNGVTFQQPNAELGSYSGNELNDDYCTAEEAEFGGSSFSDKGGLTQFKKATSGGMVLVMSLWDDYYANMLWLDSTYPTNETSSTPGAVGGSCSTSSGVPAQVESQSPNAKVTFSNIKFGPIGSTGNPSGGNPPGGNRGTTTTRRPATTTGSSPGPTQSHYGQCGGIGYSGPTVCASGTTCQVLNPYYSQCL | 91 | 12.1 | 0.88
268A+411— Asp (protein, UniProt P62694 18-513, looked up, variant R268A R411D) Exoglucanase 1: QSACTLQSETHPPLTWQKCSSGGTCTQQTGSVVIDANWRWTHATNSSTNCYDGNTWSSTLCPDNETCAKNCCLDGAAYASTYGVTTSGNSLSIGFVTQSAQKNVGARLYLMASDTTYQEFTLLGNEFSFDVDVSQLPCGLNGALYFVSMDADGGVSKYPTNTAGAKYGTGYCDSQCPRDLKFINGQANVEGWEPSSNNANTGIGGHGSCCSEMDIWEANSISEALTPHPCTTVGQEICEGDGCGGTYSDNAYGGTCDPDGCDWNPYRLGNTSFYGPGSSFTLDTTKKLTVVTQFETSGAINRYYVQNGVTFQQPNAELGSYSGNELNDDYCTAEEAEFGGSSFSDKGGLTQFKKATSGGMVLVMSLWDDYYANMLWLDSTYPTNETSSTPGAVDGSCSTSSGVPAQVESQSPNAKVTFSNIKFGPIGSTGNPSGGNPPGGNRGTTTTRRPATTTGSSPGPTQSHYGQCGGIGYSGPTVCASGTTCQVLNPYYSQCL | 93 | 10.2 | 2.12
268A+411— Met (protein, UniProt P62694 18-513, looked up, variant R268A R411M) Exoglucanase 1: QSACTLQSETHPPLTWQKCSSGGTCTQQTGSVVIDANWRWTHATNSSTNCYDGNTWSSTLCPDNETCAKNCCLDGAAYASTYGVTTSGNSLSIGFVTQSAQKNVGARLYLMASDTTYQEFTLLGNEFSFDVDVSQLPCGLNGALYFVSMDADGGVSKYPTNTAGAKYGTGYCDSQCPRDLKFINGQANVEGWEPSSNNANTGIGGHGSCCSEMDIWEANSISEALTPHPCTTVGQEICEGDGCGGTYSDNAYGGTCDPDGCDWNPYRLGNTSFYGPGSSFTLDTTKKLTVVTQFETSGAINRYYVQNGVTFQQPNAELGSYSGNELNDDYCTAEEAEFGGSSFSDKGGLTQFKKATSGGMVLVMSLWDDYYANMLWLDSTYPTNETSSTPGAVMGSCSTSSGVPAQVESQSPNAKVTFSNIKFGPIGSTGNPSGGNPPGGNRGTTTTRRPATTTGSSPGPTQSHYGQCGGIGYSGPTVCASGTTCQVLNPYYSQCL | 97 | 11.5 | 0.87
